Source: patent US6465618B1, “Mitogen activated protein kinase (MAPK) kinase” (Asahi Kasei Kabushikiki Kaisha, priority 1997, dated 2002)

B1: mouse MKK7: novel MAPK kinase derived from mouse brain, amino acid sequence SEQ ID NO: 4 (protein)
chain: MAASSLEQKLSRLEAKLKQENREARRRIDLNLDISPQRPRPIIVITLSPAPAPSQRAALQLPLANDGGSRSPSSESSPQHPTPPTRPRHMLGLPSTLFTPRSMESIEIDQKLQEIMKQTGYLTIGGQRYQAEINDLENLGEMGSGTCGQVWKMRFRKTGHIIAVKQMRRSGNKEENKRILMDLDVVLKSHDCPYIVQCFGTFITNTDVFIAMELMGTCAEKLKKRMQGPIPERILGKMTVAIVKALYYLKEKHGVIHRDVKPSNILLDERGQIKLCDFGISGRLVDSKAKTRSAGCAAYMAPERIDPPDPTKPDYDIRADVWSLGISLVELATGQFPYKNCKTDFEVLTKVLQEEPPLLPGHMGFSGDFQSFVKDCLTKDHRKRPKYNKLLEHSFIKHYEILEVDVASWFKDVMAKTESPRTSGVLSQHHLPFFSGSLEESPTSPPSPKSFPLSPAIPQAQAEWVSGR
B2: MKK7KL: dominant negative form of mouse MKK7, 165th Lysine (K) substituted with leucine (L), SEQ ID NO: 10 (protein)
chain: MAASSLEQKLSRLEAKLKQENREARRRIDLNLDISPQRPRPIIVITLSPAPAPSQRAALQLPLANDGGSRSPSSESSPQHPTPPTRPRHMLGLPSTLFTPRSMESIEIDQKLQEIMKQTGYLTIGGQRYQAEINDLENLGEMGSGTCGQVWKMRFRKTGHIIAVLQMRRSGNKEENKRILMDLDVVLKSHDCPYIVQCFGTFITNTDVFIAMELMGTCAEKLKKRMQGPIPERILGKMTVAIVKALYYLKEKHGVIHRDVKPSNILLDERGQIKLCDFGISGRLVDSKAKTRSAGCAAYMAPERIDPPDPTKPDYDIRADVWSLGISLVELATGQFPYKNCKTDFEVLTKVLQEEPPLLPGHMGFSGDFQSFVKDCLTKDHRKRPKYNKLLEHSFIKHYEILEVDVASWFKDVMAKTESPRTSGVLSQHHLPFFSGSLEESPTSPPSPKSFPLSPAIPQAQAEWVSGR
B3: activated MKK7: human MKK7 (SEQ ID NO: 2) as GST fusion, activated by co-expression with MEKK1 in E. coli (protein)
chain: AASSLEQKLSRLEAKLKQENREARRRIDLNLDISPQRPRPIIVITLSPAPAPSQRAALQLPLANDGGSRSPSSESSPQHPTPPARPRHMLGLPSTLFTPRSMESIEIDQKLQEIMKQTGYLTIGGQRYQAEINDLENLGEMGSGTCGQVWKMRFRKTGHVIAVKQMRRSGNKEENKRILMDLDVVLKSHDCPYIVQCFGTFITNTDVFIAMELMGTCAEKLKKRMQGPIPERILGKMTVAIVKALYYLKEKHGVIHRDVKPSNILLDERGQIKLCDFGISGRLVDSKAKTRSAGCAAYMAPERIDPPDPTKPDYDIRADVWSLGISLVELATGQFPYKNCKTDFEVLTKVLQEEPPLLPGHMGFSGDFQSFVKDCLTKDHRKRPKYNKLLEHSFIKRYETLEVDVASWFKDVMAKTESPRTSGVLSQPHLPFFR
modifications: left off: a dimerising Fc or GST
B4: mouse SEK1: known MAPK kinase, mouse SEK1 expressed as GST-SEK1 (protein)
chain: MAAPSPSGGGGSGGGGGTPGPIGPPASGHPAVSSMQGKRKALKLNFANPPVKSTARFTLNPNTTGVQNPHIERLRTHSIESSGKLKISPEQHWDFTAEDLKDLGEIGRGAYGSVNKMVHKPSGQIMAVKRIRSTVDEKEQKQLLMDLDVVMRSSDCPYIVQFYGALFREGDCWICMELMSTSFDKFYKYVYSVLDDVIPEEILGKITLATVKALNHLKENLKIIHRDIKPSNILLDRSGNIKLCDFGISGQLVDSIAKTRDAGCRPYMAPERIDPSASRQGYDVRSDVWSLGITLYELATGRFPYPKWNSVFDQLTQVVKGDPPQLSNSEEREFSPSFINFVNLCLTKDESKRPKYKELLKHPFILMYEERTVEVACYVCKILDQMPATPSSPMYVD
modifications: left off: a dimerising Fc or GST
B5: MKK6: known MAPK kinase, human MKK6 expressed as His-MKK6 (protein)
chain: MSQSKGKKRNPGLKIPKEAFEQPQTSSTPPRDLDSKACISIGNQNFEVKADDLEPIMELGRGAYGVVEKMRHVPSGQIMAVKRIRATVNSQEQKRLLMDLDISMRTVDCPFTVTFYGALFREGDVWICMELMDTSLDKFYKQVIDKGQTIPEDILGKIAVSIVKALEHLHSKLSVIHRDVKPSNVLINALGQVKMCDFGISGYLVDSVAKTIDAGCKPYMAPERINPELNQKGYSVKSDIWSLGITMIELAILRFPYDSWGTPFQQLKQVVEEPSPQLPADKFSAEFVDFTSQCLKKNSKERPTYPELMQHPFFTLHESKGTDVASFVKLILGD
modifications: left off: small tags and cut ends

How the values were obtained:
SAPK = target: T1, SAPK (Mus musculus, UniProt Q9WTU6); experiment: Activation of MAP kinase by recombinant MAPK kinase in vitro, substrate phosphorylation by autoradiography; type: biochemical; settings: 0.1 μg MAPK kinase, 0.5 μg His-SAPK, 30° C. 30 minutes; substrate GST-cJun (1-79)
T1 construct: His (N); made in house; host or cells: E. coli
Description: (§1) 0.1 μg of a MAPK kinase (His-MKK7, GST-SEK1 and His-MKK6 were separately used) and 0.5 μg of a MAP kinase (His-MAPK, His-SAPK, His-p38 and His-SAPK3 were separately used), both prepared in item (1) above, were incubated with 10 μl of a solution containing 100 μM ATP, 20 mM MgCl2, 2 mM EGTA and 20 mM Tris-HCl (pH 7.5) at 30° C. for 30 minutes, to thereby activate the MAP kinase. Subsequently, 5 μl of a solution containing a substrate for the MAP kinase and 1 μCi of [γ-^32P] ATP (manufactured and sold by Amersham International, England) was added to the mixture, and further incubated at 20° C. for 20 minutes. As a substrate for the MAP kinase, 3 μg of myelin basic protein (MBP) was used for MAPK and SAPK3, 3 μg of GST-cJun (1-79) was used for SAPK, and 3 μg of ATF-2 was used for p38. The MBP used as the substrate was obtained by purifying Brain Acetone Powder (manufactured and sold by Sigma, USA), and ATF-2 was a kind gift of Dr. Suzanne J. Baker and Dr. Tom Curran (St. Jude Children's Research Hospital). After incubation, a sample was obtained from each incubated mixture and resolved on SDS-polyacrylamide gel electrophoresis. Then, the radioactivity of each of MBP, c-Jun and ATF-2 was detected by autoradiography.

SAPK3 = target: T2, SAPK3 (Mus musculus, UniProt O08911); experiment: as above; type: biochemical; settings: 0.1 μg MAPK kinase, 0.5 μg His-SAPK3, 30° C. 30 minutes
T2 construct: His (N); made in house; host or cells: E. coli
T2 sequence (O08911 1-367): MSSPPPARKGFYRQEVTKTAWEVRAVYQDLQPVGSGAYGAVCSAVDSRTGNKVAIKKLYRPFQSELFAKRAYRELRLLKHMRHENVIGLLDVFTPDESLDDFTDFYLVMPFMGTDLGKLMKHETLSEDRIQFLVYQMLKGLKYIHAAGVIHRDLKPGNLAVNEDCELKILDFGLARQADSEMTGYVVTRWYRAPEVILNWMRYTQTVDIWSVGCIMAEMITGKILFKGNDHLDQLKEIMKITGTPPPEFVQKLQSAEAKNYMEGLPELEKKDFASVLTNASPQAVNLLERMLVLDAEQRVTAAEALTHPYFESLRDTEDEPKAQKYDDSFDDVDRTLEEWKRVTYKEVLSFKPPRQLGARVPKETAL
Description: as §1

p38 = target: T3, p38 (Mus musculus, UniProt P47811); experiment: as above; type: biochemical; settings: 0.1 μg MAPK kinase, 0.5 μg His-p38, 30° C. 30 minutes; substrate ATF-2
T3 construct: His (N); made in house; host or cells: E. coli
Description: as §1

[1] = Optimum pH and heat deactivation of MKK7; type: physicochemical
Description: In addition to MKK7, MKK6 and SEK1 were used as the MAPK kinase, and MAPK, SAPK, p38 and SAPK3 were used as the MAP kinase. A MAPK kinase gene and a MAP kinase gene were cotransfected to a cell in different combinations, and the activity of the MAP kinase in vivo was determined by measuring the amount of a substrate (for the transfected MAP kinase) phosphorylated by the cotransfected cells. […] From this experiment, it has become apparent that the optimum pH for MKK7 is in the range of from pH 7 to 8, and MKK7 is deactivated at 70° C. or higher.

SAPK/JNK = experiment: Inhibition of TNF-α-induced SAPK activation by the dominant negative form of MKK7 in KB cells; settings: KB cells cotransfected with pSRα-HA-SAPKα and pSRα-MKK7KL; TNF-α 100 ng/ml, 15 minutes; sorbitol- and anisomycin-induced activation not suppressed
Description: KB cells were cotransfected with the vector pSRα-HA-SAPKα (0.5 μg) and either the vector pSRα or the vector pSRα-MKK7KL (1.5 μg) using Lipofectamine (manufactured and sold under the brand of GIBCO BRL, USA). Twenty-four hours after the transfection, TNF-α (100 ng/ml), sorbitol (0.5 M) and anisomycin (100 μg/ml) were individually used to stimulate the transfected cells for 15 minutes. Next, the cell extracts of the stimulated cells were individually prepared as follows. The cells were suspended in 0.7 M NaCl solution and washed once with ice-cold HEPES-buffered saline. Subsequently, the washed cells were homogenized in a buffer containing 20 mM Tris-HCl (pH 7.5), 2 mM EGTA, 25 mM β-glycerophosphate, 2 mM DTT, 1 mM vanadate, 1 mM PMSF and 1% aprotinin, wherein the buffer was used in an amount of 300 μl relative to cells obtained per plate (diameter: 100 mm). The resultant cell homogenate was centrifuged at 1000×g for 3 minutes, followed by a further centrifugation at 400,000×g for 20 minutes, thereby obtaining a supernatant. The obtained supernatant was used as the cell extract.
Each of the cell extracts was individually immunoprecipitated with anti-HA antibody (anti-hemagglutinin antibody) (12CA5), and the kinase activity of HA-SAPK in the immunoprecipitate was determined.

JNK1 = target: T4, JNK1 (Homo sapiens, UniProt P45983); experiment: Activity of activated MKK7 on JNK1, dot hybridization with anti-activated JNK antibody; type: biochemical; settings: 0.1 μM MKK7, 0.2 μM JNK1, 0.1 mM ATP, 30° C. 2 hours
T4 construct: GST (N); made in house; host or cells: E. coli (GST-MKK7: E. coli DH5α co-transformed with a MEKK1 vector)
Description: In order to screen an inhibitor of MKK7, a completely activated MKK7 was prepared as follows. Illustratively stated, as an activation factor for MKK7, MEKK1 which is suspected to exist in the upstream of MKK7 and activate MKK7, was used. A commercially available MEKK1 gene (manufactured and sold by Stratagene Cloning Systems, USA) was inserted into an E. coli expression vector in which the origin of replication (ori) is p15A, to thereby prepare recombinant MEKK1 vector. The whole DNA of human MKK7 was inserted into vector pGEX-4T1 (manufactured and sold by Pharmacia Biotech AB, Sweden), to thereby prepare recombinant GST-MKK7 vector. Two recombinant expression vectors prepared above were co-transformed into E. coli DH5α to thereby obtain an activated GST-MKK7, and the activated GST-MKK7 was purified from E. coli using Glutathione-Sepharose 4B column (manufactured and sold by Pharmacia Biotech AB, Sweden).
A gene encoding human JNK1 was inserted into vector pGEX-4T1, thereby preparing recombinant GST-JNK1 vector, and the prepared recombinant vector was transformed into and expressed in E. coli. GST-JNK1 was purified from the transformants using Glutathione-Sepharose 4B column (manufactured and sold by Pharmacia Biotech AB, Sweden). […]
Using the activated MKK7 and JNK1 obtained above, the activity of MKK7 was determined in the following manner. […]

T3 sequence (P47811 whole entry): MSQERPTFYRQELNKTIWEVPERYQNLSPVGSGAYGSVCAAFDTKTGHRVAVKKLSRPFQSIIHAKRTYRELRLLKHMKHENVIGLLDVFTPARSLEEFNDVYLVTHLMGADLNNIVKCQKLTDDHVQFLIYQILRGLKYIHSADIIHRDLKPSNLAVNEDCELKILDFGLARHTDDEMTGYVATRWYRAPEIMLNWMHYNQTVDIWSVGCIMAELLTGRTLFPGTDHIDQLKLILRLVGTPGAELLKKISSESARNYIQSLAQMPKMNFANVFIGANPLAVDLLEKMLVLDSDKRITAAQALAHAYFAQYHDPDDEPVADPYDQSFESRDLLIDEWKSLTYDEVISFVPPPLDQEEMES
T4 sequence (P45983 whole entry): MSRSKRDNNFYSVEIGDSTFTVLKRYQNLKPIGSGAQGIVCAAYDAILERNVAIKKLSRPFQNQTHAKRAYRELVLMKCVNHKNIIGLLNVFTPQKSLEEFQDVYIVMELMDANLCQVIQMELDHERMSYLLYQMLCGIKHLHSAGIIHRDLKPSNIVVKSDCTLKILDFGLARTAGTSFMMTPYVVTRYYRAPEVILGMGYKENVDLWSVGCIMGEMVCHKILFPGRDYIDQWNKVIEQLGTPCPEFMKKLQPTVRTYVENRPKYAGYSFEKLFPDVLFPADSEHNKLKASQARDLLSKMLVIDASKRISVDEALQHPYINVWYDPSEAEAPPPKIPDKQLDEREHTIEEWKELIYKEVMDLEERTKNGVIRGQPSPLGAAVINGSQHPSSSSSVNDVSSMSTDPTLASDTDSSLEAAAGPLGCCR

| Molecule | activation of SAPK (phosphorylation of c-Jun) (SAPK) | activation of SAPK3 (phosphorylation of MBP) (SAPK3) | activation of p38 (phosphorylation of ATF-2) (p38) | optimum pH [1] [pH] | temperature at which MKK7 is deactivated [1] [°C] | TNF-α-induced activation of SAPK/JNK in a cell expressing MKK7KL (SAPK/JNK) | activity of MKK7 (presence of activated JNK1) (JNK1) |
| --- | --- | --- | --- | --- | --- | --- | --- |
| B1 | specifically activated | did not activate | did not activate | 7 to 8 | ≥ 70 |  |  |
| B2 |  |  |  |  |  | suppressed |  |
| B3 |  |  |  |  |  |  | confirmed |
| B4 | activated | activated | activated |  |  |  |  |
| B5 | did not activate | activated | activated |  |  |  |  |
